Experimental data from US20120238496A1.

Target: FGF-21 receptor
Experiment: cell-based or functional assay

“recombinant human FGF-21 (from UniProt Q9NSA1 29-209) (ligand)” was tested, and the Glucose uptake CPM, 3T3-L1 fat cells, protein at 0 nM (baseline) was 1880 CPM, the Glucose uptake CPM, 3T3-L1 fat cells, protein at 0.03 nM was 1800 CPM and the Glucose uptake CPM, 3T3-L1 fat cells, protein at 0.15 nM was 2110 CPM. It also gave a Glucose uptake CPM, 3T3-L1 fat cells, protein at 0.8 nM of 2200 CPM, a Glucose uptake CPM, 3T3-L1 fat cells, protein at 4 nM of 3300 CPM and a Glucose uptake CPM, 3T3-L1 fat cells, protein at 20 nM of 5130 CPM. The Glucose uptake CPM, 3T3-L1 fat cells, protein at 100 nM was 5320 CPM.
